# Reference: IntAct's records for PubMed 34237462
# B1: Anterior gradient protein 2 homolog (Homo sapiens), O95994 (parent)
# chain: MEKIPVSAFLLLVALSYTLARDTTVKPGAKKDTKDSRPKLPQTLSRGWGDQLIWTQTYEEALYKSKTSNKPLMIIHHLDECPHSQALKKVFAENKEIQKLAEQFVLLNLVYETTDKHLSPDGQYVPRIMFVDPSLTVRADITGRYSNRLYAYEPADTALLLDNMKKALKLLKTEL
# Variants of: B1
# Settings: with muc2_human MUC2, Q02817
row,Variant,effect of a mutation on the interaction
1,H117Y,decreasing interaction strength
